A short description of one data set: Plasma Pt quantitation. As to conditions: s.c. 10 mg/kg, between 24 and 72 hours. As for the experimental part:
Whole blood was centrifuged (1500×g, 5 min., 4° C., no brake). Top layer (plasma) and middle layer (white blood cells) were transferred to new tubes. Plasma was frozen (−20° C.) until analysis. […] The white blood cell pellet was washed twice with cold PBS and re-suspended in 9 mL of white blood cell buffer (10-mM Tris, pH 7.4, 2.3% NaCl, 2-mM EDTA), and 900 μL of 1.1-M NH4HCO3, 900 μL of 10% SDS, and 75 μL of 2% Proteinase K were added and incubated at 42° C. overnight. Then, 3.3 mL of 5-M NaCl was added, samples shaken vigorously, and centrifuged twice (3200×g, 5 min, 4° C.), each time discarding the pellet. DNA was pelleted with 20 mL of ice-cold 100% ethanol and centrifuged (3200×g, 5 min, 4° C.); the DNA pellet was washed twice with 75% ethanol, re-suspended in water, and quantitated. DNA was digested in 1% HNO3 (800 μL total volume) overnight at 70° C. DNA samples were diluted 1:10 in 1% HNO3 and plasma samples were diluted 1:10,000 in 1% HNO3. Diluted samples were analyzed for Pt content using ICP-MS with a calibration curve from 1-1000 ppt.

The nature of data set [1]: Pharmacokinetics in a healthy dog, oral sub-mucosa injection (SAAM II model). In kind it is in vivo. As to the method:
Pharmacokinetics of HA-Lys-Pt were determined in a healthy dog by Xenometrics LLC (Stillwell, Kans.). […] After each injection, 2-mL serum samples were collected at 0, 0.25, 1, 2, 6, 24, 48, 96, and 168 hours. […] The samples were frozen at −80° C. until ICP-MS analysis. Prior to analysis, serum and urine samples were diluted 250 and 500-fold using 1% HNO3, respectively. The platinum calibration curve contained 4 replicates of 6 concentrations (0, 1, 10, 20, 40, and 50 ppb). The internal standard was bismuth at 50 ppb.
The pharmacokinetics of the HA-Lys-Pt was measured using the serum and urine samples. The data was modeled using SAAM II software with a four compartmental model.
As indicated by the model, q1, q2, q3, and q4 represent the central blood compartment, the body/tissue compartment, the injection site, and the urine compartment, respectively. The syringe represents the dose that was given to the injection site compartment. The two red circles indicate the two sampling sources, the serum from the q1 (s1), and the urine from the q4 (s2). Furthermore, five transfer rate constants and one loss rate constant were applied to the model to link the compartments and their individual differential equations for data analysis and simulation. The assignment of rate constants and pharmacokinetic interpretation has been discussed previously. The calculated PK parameters including AUC, clearance, volume of distribution at steady state (Vss), elimination half-lives (te), and transfer rate constants, are listed in Table 3.

Take “HA-cis-[Pt(NH3)2(N^α-Acetyl-L-Lysine)] [75HA-Lys-Pt]”: the “plasma Pt plateau concentration” value in “Plasma Pt quantitation” is 4-5 μg Pt/mL plasma. In data set [1] (1st dose […]), the Clearance was 0.283 mL/min/kg, the Tmax (usually the time from dosing to the highest level) is listed as 6 h and the Vss was determined as 7.4 L/kg. In data set [1] (2nd dose 2.0 mg/kg), the exposure (AUC) (in general, the area under the concentration-time curve, a measure of exposure) was 218 µg·h/mL; the Clearance came to 0.153 mL/min/kg; the Cmax (usually the peak of the concentration-time curve) came out at 3437 ng/mL; the Tmax is on record as 14.4 h. Further, the Vss in data set [1] (2nd dose 2.0 mg/kg) turned out to be 2.5 L/kg.

For the origin of these results see patent US20190015518A1, “DRUG DELIVERY COMPOSITIONS AND METHODS” (priority 2016, published 2019).
